# Patent US12310324B2, “Compositions and methods for minimizing nornicotine synthesis in tobacco” (North Carolina State University, priority 2010, dated 2025)
# System: CYP82E10 nicotine demethylase
# Experiment: Nicotine demethylase assay, yeast microsomal membranes with [14C]-nicotine, CYP82E10 and variants
# Format: biochemical, tobacco
# Set-up: Activity of Mutant Enzyme: concentration or dose not given beside the values
# Settings: for Activity of Mutant Enzyme: relative to the wild type enzyme when expressed in yeast; for nicotine demethylase (enzyme) activity, result in words: yeast microsomes, [14C]-nicotine
# From the text: To determine whether CYP82E10 functions as a nicotine demethylase gene, its cDNA was cloned into the yeast expression vector pYeDP60 and transformed into yeast strain W(R). Strain W(R) is a yeast cell line that was engineered to overexpress the yeast NADPH-dependent P450 reductase, an enzyme that serves as the direct electron donor to P450s; this system greatly enhances the detection of foreign P450 enzyme activities that are expressed in yeast (Pompon et al., 1995). Nicotine demethylase assays were conducted by incubating yeast microsomal membrane preparations with [^14C]-nicotine, and resolving the products by thin layer chromatography as described in Siminszky et al. (2005).
# The nucleotide and amino acid residues mutated in these plants are also highlighted in FIG. 1. Although no truncation mutations were observed among these individuals, in several cases, mutations were identified that altered an amino acid residue within a highly conserved region of the enzyme. To determine the effects of a particular mutation on CYP82E10 enzyme activity, site-directed mutagenesis was used to introduce the specific mutations corresponding to seven of the nine mutations shown in Table 2 into the CYP82E10 cDNA within the pYeDP60 yeast expression vector. Microsomal preparations from yeast strains expressing each of the seven CYP82E10 variants were assayed in vitro for nicotine demethylase activity using both non-saturating (2.45 μM) and saturating (50 μM) concentrations of [^14C]-nicotine.
Activity of Mutant Enzyme [%],"nicotine demethylase (enzyme) activity, result in words",Molecule
100,did not alter enzyme activity,"Plant 693: CYP82E10 mutant enzyme R417H (mutation G1250A) from plant 693 (protein, listed as Nicotiana tabacum, CYP82E10 R417H Variant) MVSPVEAIVGLVTLTLLFYFIRTKKSQKPSKPLPPKIPGGWPVIGHLFYFDDDSDDRPLARKLGDLADKYGPVFTFRLGLPLVLVVSSYEAIKDCFSTNDAIFSNRPAFLYGEYLGYNNAMLFLTKYGPYWRKNRKLVIQEVLCASRLEKLKHVRFGEIQTSIKNLYTRIDGNSSTINLTDWLEELNFGLIVKMIAGKNYESGKGDEQVERFRKAFKDFIILSMEFVLWDAFPIPLFKWVDFQGHVKAMKRTFKDIDSVFQNWLEEHVKKKEKMEVNAEGNEQDFIDVVLSKMSNEYLDEGYSRDTVIKATVFSLVLDAADTVALHMNWGMALLINNQHALKKAQEEIDKKVGKDRWVEESDIKDLVYLQTIVKEVLRLYPPGPLLVPHENVEDCVVSGYHIPKGTRLFANVMKLQHDPKLWSNPDKFDPERFFAADIDFRGQHYEFIPFGSGRRSCPGMTYAMQVEHLTIAHLIQGFNYKTPNDEPLDMKEGAGLTIRKVNPIEVVITPRLTPELY"
100,did not alter enzyme activity,"Plant 1035: CYP82E10 mutant enzyme A344T (mutation G1030A) from plant 1035 (protein, listed as Nicotiana tabacum, CYP82E10 A344T Variant) MVSPVEAIVGLVTLTLLFYFIRTKKSQKPSKPLPPKIPGGWPVIGHLFYFDDDSDDRPLARKLGDLADKYGPVFTFRLGLPLVLVVSSYEAIKDCFSTNDAIFSNRPAFLYGEYLGYNNAMLFLTKYGPYWRKNRKLVIQEVLCASRLEKLKHVRFGEIQTSIKNLYTRIDGNSSTINLTDWLEELNFGLIVKMIAGKNYESGKGDEQVERFRKAFKDFIILSMEFVLWDAFPIPLFKWVDFQGHVKAMKRTFKDIDSVFQNWLEEHVKKKEKMEVNAEGNEQDFIDVVLSKMSNEYLDEGYSRDTVIKATVFSLVLDAADTVALHMNWGMALLINNQHALKKTQEEIDKKVGKDRWVEESDIKDLVYLQTIVKEVLRLYPPGPLLVPHENVEDCVVSGYHIPKGTRLFANVMKLQRDPKLWSNPDKFDPERFFAADIDFRGQHYEFIPFGSGRRSCPGMTYAMQVEHLTIAHLIQGFNYKTPNDEPLDMKEGAGLTIRKVNPIEVVITPRLTPELY"
100,did not alter enzyme activity,"Plant 817: CYP82E10 mutant enzyme A410T (mutation G1228A) from plant 817 (protein, listed as Nicotiana tabacum, CYP82E10 A410T) MVSPVEAIVGLVTLTLLFYFIRTKKSQKPSKPLPPKIPGGWPVIGHLFYFDDDSDDRPLARKLGDLADKYGPVFTFRLGLPLVLVVSSYEAIKDCFSTNDAIFSNRPAFLYGEYLGYNNAMLFLTKYGPYWRKNRKLVIQEVLCASRLEKLKHVRFGEIQTSIKNLYTRIDGNSSTINLTDWLEELNFGLIVKMIAGKNYESGKGDEQVERFRKAFKDFIILSMEFVLWDAFPIPLFKWVDFQGHVKAMKRTFKDIDSVFQNWLEEHVKKKEKMEVNAEGNEQDFIDVVLSKMSNEYLDEGYSRDTVIKATVFSLVLDAADTVALHMNWGMALLINNQHALKKAQEEIDKKVGKDRWVEESDIKDLVYLQTIVKEVLRLYPPGPLLVPHENVEDCVVSGYHIPKGTRLFTNVMKLQRDPKLWSNPDKFDPERFFAADIDFRGQHYEFIPFGSGRRSCPGMTYAMQVEHLTIAHLIQGFNYKTPNDEPLDMKEGAGLTIRKVNPIEVVITPRLTPELY"
